Assay results: the Human Domainome abundance scans (Beltran et al. 2025)
± gives the uncertainty stated by the source.

B1: Tyrosine-protein kinase Lck, residues 63 to 120; numbered along this chain, P06239 (parent)
chain: DNLVIALHSYEPSHDGDLGFEKGEQLRILEQSGEWWKAQSLTTGQEGFIPFNFVAKAN
B2: REST corepressor 3, residues 87 to 134; numbered along this chain, Q9P2K3 (parent)
chain: DEWTVEDKVLFEQAFSFHGKSFHRIQQMLPDKTIASLVKYYYSWKKTR

Variants of: B1
Experiment: abundance fitness (aPCA) (normalised: wild type 0, dead -1); higher = more abundant; growth selection in yeast, the domain comes from the species named
Conditions: Homo sapiens

Compared with E11P, E11R is higher in abundance fitness: -0.409 ± 0.13 for the first, -0.145 ± 0.075 for the second.

Compared with E11L, E11M is lower in abundance fitness: -0.164 ± 0.084 for the first, -0.409 ± 0.14 for the second.

E11N and E11I are within error of each other in abundance fitness: -0.171 ± 0.16 for the first, -0.177 ± 0.19 for the second.

E11A and E11D are within error of each other in abundance fitness: -0.137 ± 0.085 for the first, -0.116 ± 0.12 for the second.

E11T and E11K are within error of each other in abundance fitness: 0.064 ± 0.12 for the first, 0.206 ± 0.19 for the second.

E11F and E11V are within error of each other in abundance fitness: -0.214 ± 0.18 for the first, -0.05 ± 0.08 for the second.

E11H and E11W are within error of each other in abundance fitness: -0.156 ± 0.18 for the first, -0.435 ± 0.11 for the second.

E11G and E11Y are within error of each other in abundance fitness: -0.431 ± 0.066 for the first, -0.363 ± 0.16 for the second.

E11S and E11C are within error of each other in abundance fitness: -0.16 ± 0.11 for the first, -0.21 ± 0.12 for the second.

E11Q and P12C are within error of each other in abundance fitness: -0.199 ± 0.16 for the first, -0.387 ± 0.12 for the second.

P12D and L3Y are within error of each other in abundance fitness: -0.439 ± 0.27 for the first, -0.113 ± 0.17 for the second.

L3V and L3N are within error of each other in abundance fitness: -0.212 ± 0.089 for the first, -0.159 ± 0.26 for the second.

L3F and L3W are within error of each other in abundance fitness: -0.304 ± 0.14 for the first, -0.232 ± 0.1 for the second.

L3D and L3P are within error of each other in abundance fitness: -0.503 ± 0.16 for the first, -0.74 ± 0.25 for the second.

First: L3G
Second: L3S
The abundance fitness of the first is lower: -0.768 ± 0.12 for the first, -0.343 ± 0.088 for the second.

Compared with L3A, L3M is higher in abundance fitness: -0.79 ± 0.14 for the first, -0.094 ± 0.12 for the second.

Compared with L3R, L3H is lower in abundance fitness: -0.178 ± 0.076 for the first, -0.486 ± 0.17 for the second.

L3I and L3T are within error of each other in abundance fitness: 0.091 ± 0.14 for the first, -0.019 ± 0.11 for the second.

L3C and L3Q are within error of each other in abundance fitness: -0.273 ± 0.17 for the first, -0.122 ± 0.15 for the second.

I5M and H8C are within error of each other in abundance fitness: -0.26 ± 0.15 for the first, -0.131 ± 0.11 for the second.

Compared with H8G, H8P is lower in abundance fitness: -0.295 ± 0.08 for the first, -0.79 ± 0.18 for the second.

H8N and H8A are within error of each other in abundance fitness: -0.001 ± 0.14 for the first, -0.067 ± 0.12 for the second.

Going from H8K to H8Q, the abundance fitness falls from 0.285 ± 0.17 to -0.086 ± 0.13.

First: H8R
Second: H8V
The abundance fitness of the first is higher: 0.034 ± 0.074 for the first, -0.227 ± 0.085 for the second.

H8T and H8E are within error of each other in abundance fitness: -0.012 ± 0.11 for the first, -0.096 ± 0.1 for the second.

Going from H8L to H8S, the abundance fitness rises from -0.285 ± 0.083 to -0.078 ± 0.091.

Compared with H8I, H8D is higher in abundance fitness: -0.262 ± 0.11 for the first, 0.003 ± 0.13 for the second.

Going from Y10M to Y10W, the abundance fitness rises from -0.444 ± 0.15 to -0.019 ± 0.09.

Compared with Y10A, Y10K is higher in abundance fitness: -0.671 ± 0.12 for the first, -0.113 ± 0.17 for the second.

Y10T and Y10L are within error of each other in abundance fitness: -0.604 ± 0.12 for the first, -0.488 ± 0.092 for the second.

Y10S and Y10D are within error of each other in abundance fitness: -0.662 ± 0.098 for the first, -0.511 ± 0.14 for the second.

Compared with Y10P, Y10F is higher in abundance fitness: -0.673 ± 0.14 for the first, -0.241 ± 0.14 for the second.

Y10I and Y10C are within error of each other in abundance fitness: -0.619 ± 0.24 for the first, -0.415 ± 0.12 for the second.

Going from Y10H to Y10V, the abundance fitness falls from -0.087 ± 0.16 to -0.485 ± 0.1.

Going from Y10R to Y10G, the abundance fitness falls from -0.289 ± 0.079 to -0.717 ± 0.086.

Y10N and V4N are within error of each other in abundance fitness: -0.587 ± 0.19 for the first, -0.727 ± 0.35 for the second.

V4H and V4L are within error of each other in abundance fitness: -0.073 ± 0.28 for the first, -0.04 ± 0.26 for the second.

V4T and V4M are within error of each other in abundance fitness: -0.325 ± 0.28 for the first, -0.173 ± 0.3 for the second.

V4G and V4F are within error of each other in abundance fitness: -0.431 ± 0.37 for the first, -0.054 ± 0.39 for the second.

V4R and V4A are within error of each other in abundance fitness: -0.29 ± 0.2 for the first, 0.123 ± 0.38 for the second.

D1N and D1E are within error of each other in abundance fitness: -0.115 ± 0.18 for the first, -0.036 ± 0.14 for the second.

D1A and D1M are within error of each other in abundance fitness: -0.337 ± 0.15 for the first, -0.334 ± 0.29 for the second.

D1W and D1Y are within error of each other in abundance fitness: -0.331 ± 0.19 for the first, -0.224 ± 0.31 for the second.

Going from D1G to D1V, the abundance fitness falls from -0.115 ± 0.12 to -0.519 ± 0.13.

D1T and D1P are within error of each other in abundance fitness: -0.335 ± 0.45 for the first, -0.827 ± 0.32 for the second.

D1L and L7F are within error of each other in abundance fitness: -0.487 ± 0.31 for the first, -0.705 ± 0.17 for the second.

L7E and L7T are within error of each other in abundance fitness: -0.217 ± 0.11 for the first, -0.224 ± 0.14 for the second.

L7D and L7H are within error of each other in abundance fitness: -0.486 ± 0.13 for the first, -0.429 ± 0.28 for the second.

L7A and L7R are within error of each other in abundance fitness: -0.249 ± 0.13 for the first, -0.298 ± 0.084 for the second.

First: L7Y
Second: L7M
The abundance fitness of the first is lower: -0.54 ± 0.22 for the first, -0.097 ± 0.11 for the second.

L7I and L7K are within error of each other in abundance fitness: -0.079 ± 0.22 for the first, -0.232 ± 0.14 for the second.

L7Q and L7S are within error of each other in abundance fitness: -0.131 ± 0.17 for the first, -0.21 ± 0.091 for the second.

L7P and L7C are within error of each other in abundance fitness: -0.38 ± 0.15 for the first, -0.357 ± 0.11 for the second.

Compared with L7V, L7N is lower in abundance fitness: -0.161 ± 0.073 for the first, -0.602 ± 0.3 for the second.

N2W and N2R are within error of each other in abundance fitness: -0.526 ± 0.15 for the first, -0.32 ± 0.088 for the second.

N2G and N2P are within error of each other in abundance fitness: -0.428 ± 0.13 for the first, -0.713 ± 0.38 for the second.

N2Y and N2Q are within error of each other in abundance fitness: -0.243 ± 0.37 for the first, -0.174 ± 0.17 for the second.

Compared with N2M, N2E is lower in abundance fitness: -0.075 ± 0.12 for the first, -0.541 ± 0.13 for the second.

Compared with N2V, N2H is higher in abundance fitness: -0.851 ± 0.14 for the first, 0.146 ± 0.21 for the second.

N2F and N2D are within error of each other in abundance fitness: 0.034 ± 0.45 for the first, -0.193 ± 0.12 for the second.

N2S and N2T are within error of each other in abundance fitness: -0.128 ± 0.11 for the first, -0.157 ± 0.14 for the second.

N2C and N2L are within error of each other in abundance fitness: -0.309 ± 0.2 for the first, -0.185 ± 0.094 for the second.

First: N2I
Second: A6N
The abundance fitness of the first is higher: -0.094 ± 0.25 for the first, -0.956 ± 0.2 for the second.

Compared with A6L, A6G is higher in abundance fitness: -0.845 ± 0.12 for the first, -0.212 ± 0.078 for the second.

A6K and A6E are within error of each other in abundance fitness: -0.933 ± 0.28 for the first, -0.857 ± 0.26 for the second.

A6H and A6P are within error of each other in abundance fitness: -0.756 ± 0.15 for the first, -0.897 ± 0.16 for the second.

First: A6C
Second: A6Y
The abundance fitness of the first is higher: -0.217 ± 0.14 for the first, -0.99 ± 0.21 for the second.

A6F and A6I are within error of each other in abundance fitness: -0.907 ± 0.22 for the first, -0.772 ± 0.15 for the second.

First: A6W
Second: A6V
The abundance fitness of the first is lower: -1.2 ± 0.32 for the first, -0.556 ± 0.097 for the second.

Compared with A6M, A6T is higher in abundance fitness: -0.637 ± 0.19 for the first, -0.113 ± 0.12 for the second.

First: A6Q
Second: A6S
The abundance fitness of the first is lower: -0.84 ± 0.28 for the first, -0.348 ± 0.088 for the second.

First: A6D
Second: S9A
The abundance fitness of the first is lower: -0.907 ± 0.38 for the first, -0.235 ± 0.12 for the second.

S9L and S9V are within error of each other in abundance fitness: -0.84 ± 0.12 for the first, -0.676 ± 0.11 for the second.

First: S9K
Second: S9Y
The abundance fitness of the first is higher: 0.017 ± 0.14 for the first, -0.619 ± 0.16 for the second.

Going from S9E to S9W, the abundance fitness falls from -0.218 ± 0.1 to -0.923 ± 0.15.

First: S9F
Second: S9T
The abundance fitness of the first is lower: -0.798 ± 0.13 for the first, -0.046 ± 0.12 for the second.

First: S9C
Second: S9N
The abundance fitness of the first is lower: -0.25 ± 0.12 for the first, 0.045 ± 0.12 for the second.

S9R and S9G are within error of each other in abundance fitness: -0.11 ± 0.072 for the first, -0.116 ± 0.077 for the second.

Going from S9I to S9P, the abundance fitness rises from -0.888 ± 0.2 to -0.166 ± 0.12.

S9Q and S9M are within error of each other in abundance fitness: -0.276 ± 0.14 for the first, -0.473 ± 0.13 for the second.

For S9H, the abundance fitness was -0.254 ± 0.15.

Variants of: B2
Experiment: as above
Conditions: Homo sapiens

K39N and K39S are within error of each other in abundance fitness: -0.276 ± 0.27 for the first, -0.168 ± 0.062 for the second.

K39E and K39A are within error of each other in abundance fitness: -0.574 ± 0.2 for the first, -0.481 ± 0.18 for the second.

K39L and K39C are within error of each other in abundance fitness: -0.732 ± 0.14 for the first, -0.546 ± 0.28 for the second.
